These results are taken from publication doi:10.1101/634907.

Test [1] deals with recombinant human CLASP2 C-terminal fragment (CLASP2-1213-1515) (human). The experiment in a line: SEC + other: density gradient centrifugation.
Test [2] addresses T1, CLASP2 (endogenous, HeLa cell extracts) (human (endogenous in HeLa)), O75122.
T1 chain: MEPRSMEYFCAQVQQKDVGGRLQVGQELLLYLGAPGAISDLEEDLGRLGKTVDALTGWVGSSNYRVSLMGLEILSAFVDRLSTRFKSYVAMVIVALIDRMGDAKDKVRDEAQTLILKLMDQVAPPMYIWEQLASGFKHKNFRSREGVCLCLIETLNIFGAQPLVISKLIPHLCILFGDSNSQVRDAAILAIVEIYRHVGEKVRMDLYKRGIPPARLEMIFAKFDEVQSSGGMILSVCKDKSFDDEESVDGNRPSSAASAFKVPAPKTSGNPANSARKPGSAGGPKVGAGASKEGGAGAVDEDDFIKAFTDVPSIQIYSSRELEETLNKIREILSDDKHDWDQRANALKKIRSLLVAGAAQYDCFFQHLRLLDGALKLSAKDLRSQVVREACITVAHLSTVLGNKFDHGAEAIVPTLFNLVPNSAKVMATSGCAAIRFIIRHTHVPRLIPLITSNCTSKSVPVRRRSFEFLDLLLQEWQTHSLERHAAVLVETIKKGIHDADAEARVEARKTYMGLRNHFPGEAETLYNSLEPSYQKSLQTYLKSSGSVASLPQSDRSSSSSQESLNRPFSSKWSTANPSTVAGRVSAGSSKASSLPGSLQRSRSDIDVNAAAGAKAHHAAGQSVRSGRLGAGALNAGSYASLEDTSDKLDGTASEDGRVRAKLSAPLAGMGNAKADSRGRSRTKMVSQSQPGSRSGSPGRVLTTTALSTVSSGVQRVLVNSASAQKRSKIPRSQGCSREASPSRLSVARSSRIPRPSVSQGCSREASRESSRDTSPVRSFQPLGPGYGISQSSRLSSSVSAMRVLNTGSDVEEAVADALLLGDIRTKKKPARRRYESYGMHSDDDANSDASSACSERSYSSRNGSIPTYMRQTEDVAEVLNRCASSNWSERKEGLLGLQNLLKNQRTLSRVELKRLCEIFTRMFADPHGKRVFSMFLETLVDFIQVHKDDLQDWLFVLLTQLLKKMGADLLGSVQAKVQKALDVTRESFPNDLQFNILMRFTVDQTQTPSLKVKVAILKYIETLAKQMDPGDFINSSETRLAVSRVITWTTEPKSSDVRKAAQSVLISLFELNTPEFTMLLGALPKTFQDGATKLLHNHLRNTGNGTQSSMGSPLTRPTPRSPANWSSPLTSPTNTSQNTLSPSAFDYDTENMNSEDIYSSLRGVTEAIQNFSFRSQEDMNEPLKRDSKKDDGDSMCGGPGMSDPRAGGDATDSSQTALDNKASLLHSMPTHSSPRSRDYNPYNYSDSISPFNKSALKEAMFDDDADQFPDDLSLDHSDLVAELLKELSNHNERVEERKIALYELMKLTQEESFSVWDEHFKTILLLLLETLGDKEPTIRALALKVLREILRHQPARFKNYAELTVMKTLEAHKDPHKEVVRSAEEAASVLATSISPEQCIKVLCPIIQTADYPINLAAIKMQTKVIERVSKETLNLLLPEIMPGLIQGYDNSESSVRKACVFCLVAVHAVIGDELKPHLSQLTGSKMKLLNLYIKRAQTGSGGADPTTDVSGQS
The experiment in a line: SEC + other: density gradient centrifugation. As to conditions: remark: other sources report otherwise.

The term stoichiometry N denotes the number of molecules, sites or subunits per partner or assembly. Take “recombinant human CLASP2 C-terminal fragment (CLASP2-1213-1515) (domain or fragment)”: the stoichiometry N in test [1] is 2.

B1: CLASP2 (endogenous, HeLa cell extracts), O75122-3 1-1515 (natural protein)
chain: T1 chain
In the case of B1, in test [2], the stoichiometry N came out at 2.
